Source: doi:10.1101/2023.04.06.534471

Molecular target: Dendritic cell-specific intercellular adhesion molecule 3-grabbing nonintegrin (DC-SIGN), on the Biacore chip (UniProt Q9NNX6)
Experiment: SPR

UniProt Q9NNX6, sequence (Q9NNX6 whole entry): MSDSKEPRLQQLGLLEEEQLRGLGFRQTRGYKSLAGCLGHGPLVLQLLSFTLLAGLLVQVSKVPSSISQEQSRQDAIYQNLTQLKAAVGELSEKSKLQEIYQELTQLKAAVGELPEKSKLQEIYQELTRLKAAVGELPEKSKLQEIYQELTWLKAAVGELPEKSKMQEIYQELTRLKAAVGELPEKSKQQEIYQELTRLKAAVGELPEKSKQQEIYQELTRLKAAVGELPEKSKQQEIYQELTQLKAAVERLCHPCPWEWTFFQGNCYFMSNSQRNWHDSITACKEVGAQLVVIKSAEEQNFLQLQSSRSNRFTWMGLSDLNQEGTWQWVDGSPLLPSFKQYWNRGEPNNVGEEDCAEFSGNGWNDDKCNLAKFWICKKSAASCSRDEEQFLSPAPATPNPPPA

Surface layer protein B (SlpB) from Levilactobacillus brevis JCM 1059 (natural protein)
Kd: 0.0303 µM
